This data set deals with the molecule itself. Kind of data set: velocity gradient sedimentation.

For orientation: stoichiometry N means a count of units in the complex or per binding partner.

B1: wild-type HTLV-1 envelope precursor glycoprotein (natural protein, UniProt P03381 21-488, looked up)
chain: DYSPSCCTLTIGVSSYHSKPCNPAQPVCSWTLDLLALSADQALQPPCPNLVSYSSYHATYSLYLFPHWTKKPNRNGGGYYSASYSDPCSLKCPYLGCQSWTCPYTGAVSSPYWKFQHDVNFTQEVSRLNINLHFSKCGFPFSLLVDAPGYDPIWFLNTEPSQLPPTAPPLLPHSNLDHILEPSIPWKSKLLTLVQLTLQSTNYTCIVCIDRASLSTWHVLYSPNVSVPSSSSTPLLYPSLALPAPHLTLPFNWTHCFDPQIQAIVSSPCHNSLILPPFSLSPVPTLGSRSRRAVPVAVWLVSALAMGAGVAGGITGSMSLASGKSLLHEVDKDISQLTQAIVKNHKNLLKIAQYAAQNRRGLDLLFWEQGGLCKALQEQCRFPNITNSHVPILQERPPLENRVLTGWGLNWDLGLSQWAREALQTGITLVALLLLVILAGPCILRQLRHLPSRVRYPHYSLIKPESSL
Regarding B1, the “stoichiometry N” value turned out to be 2.

Values taken from article PMC2148214 (The Journal of Cell Biology, 1999).
